Common to all, as to assay: ITC
Assay [1] addresses T1, WW1-WW2 tandem domains (residues 16-91) of human WWOX (human, UniProt Q9NZC7 16-91).
T1 sequence (looked up): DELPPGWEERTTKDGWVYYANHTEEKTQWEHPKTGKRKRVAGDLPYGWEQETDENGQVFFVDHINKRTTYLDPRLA

Assay [2] addresses T2, WW1 domain (residues 16-50) of human WWOX (human, UniProt Q9NZC7 16-50).
T2 chain (looked up): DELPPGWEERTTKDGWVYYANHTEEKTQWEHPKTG

The target in assay [3] is engineered WW2_RW domain of WWOX (E66R/Y85W double-mutant of WW2 domain) (human, UniProt Q9NZC7 57-91, E66R | Y85W).
engineered WW2_RW domain of WWOX (E66R/Y85W double-mutant of WW2 domain), sequence (Q9NZC7 57-91 E66R/Y85W): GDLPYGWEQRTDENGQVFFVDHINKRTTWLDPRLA
The target in assay [4] is T3, engineered WW1-WW2rw tandem domains of WWOX (human, UniProt Q9NZC7 16-91, E66R | Y85W).
T3 sequence (looked up): T1 sequence (looked up) with E51R, Y70W

Numbering of substitutions follows the chain as printed.

The Kd is the concentration at which binding is half-saturated. A high value points to lower affinity. A word on the stoichiometry N: it is a count of units in the complex or per binding partner. Turning to VQPPPPPYPGPM [WBP2_PY2 peptide (12-mer spanning the PY2 PPXY motif of human WBP2)], the Kd in assay [1] is 326 µM; in assay [2] it was more than 1000 µM; in assay [3], 69 µM; in assay [4] it was 86 µM. Further, the dH in assay [1] was -3.36 kcal/mol; in assay [3], -8.44 kcal/mol; in assay [4], -11.5 kcal/mol. In addition, the “stoichiometry N” value in assay [1] came to 1.03; in assay [4], 1.02.
As for PGTPPPPYTVAP [WBP1_PY2 peptide (12-mer spanning the PY2 PPXY motif of human WBP1)], the dissociation constant (Kd) in assay [1] was 132 µM; in assay [2], 366 µM; in assay [3], 123 µM; in assay [4], 101 µM. Besides, the dH in assay [1] was -9.85 kcal/mol; in assay [2], -16.1 kcal/mol; in assay [3], -12.1 kcal/mol; in assay [4], -10.1 kcal/mol. For the same molecule, the “stoichiometry N” value in assay [1] was found to be 0.99; in assay [4], 2.02.
Take STFKPPAYEDVV [WBP1_PY1 peptide (12-mer spanning the PY1 PPXY motif of human WBP1)]: the Kd in assay [1] is more than 1000 µM; in assay [2], more than 1000 µM; in assay [3], 80 µM; in assay [4] it was 103 µM. Moreover, the figures for the dH in assay [3] and in assay [4] were -5.59 kcal/mol and -8.66 kcal/mol, respectively. For the same molecule, in assay [4], the “stoichiometry N” value is 1.07.
